# Test results from PMC4361889.
# Biological target: Taliglucerase alfa (recombinant GCase) (human) (UniProt P04062)
# Experiment: AUC
substance,measurement,value
Taliglucerase alfa (recombinant GCase) (from UniProt P04062 40-536) (enzyme),population of the dimer species,47%
same,stoichiometry N,2
